Measurements taken from patent EP4813396A2 (Amphivena Therapeutics, Inc., dated 2026).
Residue numbers refer to the chain shown, from its start.

B1: CD33/CD3 tandem diabody 04 (bispecific antibody)
chain: DIQMTQSPSSLSASVGDRVTITCRSSTGAVTTSNYANWVQQKPGKAPKGLIGGTNKRAPGVPARFSGSGSGTDFTLTISSLQPEDFATYYCALWYSNLWVFGQGTKVEIKGGSGGSQVQLVQSGAEVKKPGASVKVSCKASGYTFTSYDINWVRQAPGQGLEWMGWMNPNSGNTGFAQKFQGRVTMTRDTSTSTVYMELSSLRSEDTAVYYCARDRANTDYSLGMDVWGQGTLVTVSSGGSGQSVLTQPPSASGTPGQRVTISCSGSRSNIGSNTVNWYQQLPGTAPKLLIYGNNQRPSGVPDRFSGSKSGTSASLAISGLQSEDEADYYCATWDDSLIGWVFGGGTKLTVLGGSGGSEVQLVESGGGLVQPGGSLRLSCAASGFTFSTYAMNWVRQAPGKGLEWVGRIRSKYNNYATYYADSVKDRFTISRDDSKNSLYLQMNSLKTEDTAVYYCARHGNFGNSYVSWFAYWGQGTLVTVSSAAAGSHHHHHH
notes: Non-covalent homodimer; domain order 1; also called TandAb 04; tandem diabody 4
B2: CD33/CD3 tandem diabody 09 (bispecific antibody)
chain: B1 chain with A63S, G69L, S70I, T72D, D73K, F74A, Y221F, L223Y, T312S
notes: Non-covalent homodimer; domain order 1; also called TandAb 09; tandem diabody 9
B3: CD33/CD3 tandem diabody 11 (bispecific antibody)
chain: B1 chain with A63S, G69L, S70I, T72D, D73K, F74A
notes: Non-covalent homodimer; domain order 1; also called TandAb 11
B4: CD33/CD3 tandem diabody 15 (bispecific antibody)
chain: B1 chain with G49A, A63S, G69L, S70I, T72D, D73K, F74A, L223F, W469Y
notes: Non-covalent homodimer; domain order 1; also called TandAb 15
B5: CD33/CD3 tandem diabody 20 (bispecific antibody)
chain: DIQMTQSPSSLSASVGDRVTITCRSSTGAVTTSNYANWVQQKPGKAPKGLIGGTNKRAPGVPSRFSGSLIGTDFTLTISSLQPEDFATYYCALWYSNLWVFGQGTKVEIKGGSGGSQVQLVQSGAEVKKPGASVKVSCKASGYTFTSYYMHWVRQAPGQGLEWMGIINPSGGSTSYAQKFQGRVTMTRDTSTSTVYMELSSLRSEDTAVYYCARDVVPAAIDYYGMDVWGQGTTVTVSSGGSGQSVLTQPPSASGTPGQRVTISCSGSSSNIGSNTVNWYQQLPGTAPKLLIYSDNQRPSGVPDRFSGSKSGSSASLAISGLQSDDEADYYCATWDDSLNGAVFGGGTKLTVLGGSGGSEVQLVESGGGLVQPGGSLRLSCAASGFTFSTYAMNWVRQAPGKGLEWVGRIRSKYNNYATYYADSVKDRFTISRDDSKNSLYLQMNSLKTEDTAVYYCARHGNFGNSYVSWFAYWGQGTLVTVSS
notes: Non-covalent homodimer; domain order 1; also called TandAb 20
B6: CD33/CD3 tandem diabody 21 (bispecific antibody)
chain: DIQMTQSPSSLSASVGDRVTITCRSSTGAVTTSNYANWVQQKPGKAPKALIGGTNKRAPGVPSRFSGSLIGDKATLTISSLQPEDFATYYCALWYSNLWVFGQGTKVEIKGGSGGSQVQLVQSGAEVKKPGSSVKVSCKASGGTFSSYAISWVRQAPGQGLEWMGGIYPIFGSANYAQKFQGRVTITADESTSTAYMELSSLRSEDTAVYYCAREYYYDSSEWAFDIWGQGTLVTVSSGGSGQSVLTQPPSASGTPGQRVTISCSGSSSNIGSNIVNWYQQLPGTAPKLLIYSNNQRPSGVPDRFSGSKSGTSASLAISGLQSEDEADYYCAAWDDSLKGYVFGGGTKLTVLGGSGGSEVQLVESGGGLVQPGGSLRLSCAASGFTFSTYAMNWVRQAPGKGLEWVGRIRSKYNNYATYYADSVKDRFTISRDDSKNSLYLQMNSLKTEDTAVYYCARHGNFGNSYVSYFAYWGQGTLVTVSSAAAGSHHHHHH
notes: Non-covalent homodimer; domain order 1; also called TandAb 21
B7: CD33/CD3 tandem diabody 22 (bispecific antibody)
chain: B6 chain with A149G, Y168I, N175H, I275T, N277K, P298S, T312S, K339N
notes: Non-covalent homodimer; domain order 1; also called TandAb 22
B8: CD33/CD3 tandem diabody 24 (bispecific antibody)
chain: DIQMTQSPSSLSASVGDRVTITCRSSTGAVTTSNYANWVQQKPGKAPKALIGGTNKRAPGVPSRFSGSLIGDKATLTISSLQPEDFATYYCALWYSNLWVFGQGTKVEIKGGSGGSQVQLVQSGAEVKKPGSSVKVSCKASGGTFDSYAISWVRQAPGQGLEWMGGIIPIFGSAHYSQKFQGRVTITADESTSTAYMELSSLRSEDTAVYYCAREYYYDSSEWAFDIWGQGTLVTVSSGGSGQSVLTQPPSASGTPGQRVTISCSGSSSNIGDNVVNWYQQLPGTAPKLLIYSTNKRPSGVPDRFSGSKSGSSASLAISGLQSEDEADYYCAAWDDSLSAYVFGGGTKLTVLGGSGGSEVQLVESGGGLVQPGGSLRLSCAASGFTFSTYAMNWVRQAPGKGLEWVGRIRSKYNNYATYYADSVKDRFTISRDDSKNSLYLQMNSLKTEDTAVYYCARHGNFGNSYVSYFAYWGQGTLVTVSSAAAGSHHHHHH
notes: Non-covalent homodimer; domain order 1; also called TandAb 24
B9: CD33/CD3 tandem diabody 23 (bispecific antibody)
chain: DIQMTQSPSSLSASVGDRVTITCRSSTGAVTTSNYANWVQQKPGKAPKGLIGGTNKRAPGVPSRFSGSLIGTDFTLTISSLQPEDFATYYCALWYSNLWVFGQGTKVEIKGGSGGSQVQLVQSGAEVKKPGSSVKVSCKASGGTFSSYGISWVRQAPGQGLEWMGGIIPIFGSAHYAQKFQGRVTITADESTSTAYMELSSLRSEDTAVYYCAREYYYDSSEWAFDIWGQGTLVTVSSGGSGQSVLTQPPSASGTPGQRVTISCSGSSSNIGSNTVKWYQQLPGTAPKLLIYSNNQRSSGVPDRFSGSKSGSSASLAISGLQSEDEADYYCAAWDDSLNGYVFGGGTKLTVLGGSGGSEVQLVESGGGLVQPGGSLRLSCAASGFTFSTYAMNWVRQAPGKGLEWVGRIRSKYNNYATYYADSVKDRFTISRDDSKNSLYLQMNSLKTEDTAVYYCARHGNFGNSYVSWFAYWGQGTLVTVSS
notes: Non-covalent homodimer; domain order 1; also called TandAb 23
B10: CD33/CD3 tandem diabody 05 (bispecific antibody)
chain: DIQMTQSPSSLSASVGDRVTITCRSSTGAVTTSNYANWVQQKPGKAPKGLIGGTNKRAPGVPARFSGSGSGTDFTLTISSLQPEDFATYYCALWYSNLWVFGQGTKVEIKGGSGGSQVQLVQSGAEVKKPGASVKVSCKASGYTFTSYDINWVRQAPGQGLEWMGWMNPNSGNTGFAQKFQGRVTMTRDTSTSTVYMELSSLRSEDTAVYYCARDRANTDYSFGMDVWGQGTLVTVSSGGSGGQSVLTQPPSASGTPGQRVTISCSGSRSNIGSNTVNWYQQLPGTAPKLLIYGNNQRPSGVPDRFSGSKSGTSASLAISGLQSEDEADYYCATWDDSLIGWVFGGGTKLTVLGGSGGSEVQLVESGGGLVQPGGSLRLSCAASGFTFSTYAMNWVRQAPGKGLEWVGRIRSKYNNYATYYADSVKDRFTISRDDSKNSLYLQMNSLKTEDTAVYYCARHGNFGNSYVSWFAYWGQGTLVTVSSAAAGSHHHHHH
notes: Non-covalent homodimer; domain order 1; also called TandAb 05; tandem diabody 5
B11: CD33/CD3 tandem diabody 06 (bispecific antibody)
chain: B10 chain with F223L
notes: Non-covalent homodimer; domain order 1; also called TandAb 06; tandem diabody 6

Target: T1, human CD33 on cells (human, UniProt P20138 18-364)
T1 construct: whole, on cells; also called huCD33
Assay: flow cytometry, HL-60 cells

T1 sequence (P20138 18-364): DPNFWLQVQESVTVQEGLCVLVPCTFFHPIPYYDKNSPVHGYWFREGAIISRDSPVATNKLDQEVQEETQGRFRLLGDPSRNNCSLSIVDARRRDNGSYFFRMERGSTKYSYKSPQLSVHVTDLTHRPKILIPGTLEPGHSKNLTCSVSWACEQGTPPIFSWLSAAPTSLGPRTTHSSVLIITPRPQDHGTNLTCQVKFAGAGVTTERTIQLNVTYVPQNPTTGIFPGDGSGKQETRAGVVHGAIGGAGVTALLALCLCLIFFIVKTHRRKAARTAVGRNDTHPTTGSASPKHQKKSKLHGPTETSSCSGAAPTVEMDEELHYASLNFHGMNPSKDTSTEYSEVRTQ

| Binder | Kd [nM] |
| --- | --- |
| B1 | 0.5 |
| B2 | 0.5 |
| B3 | 0.3 |
| B4 | 0.4 |
| B5 | 4.1 |
| B6 | 9.7 |
| B7 | 0.7 |
| B8 | 5.6 |
| B9 | 0.4 |
| B10 | 1 |
| B11 | 0.4 |

Target: T2, human CD3 on T cells (human, UniProt P07766 23-207)
Assay: cell-based or functional assay

T2 sequence (P07766 23-207): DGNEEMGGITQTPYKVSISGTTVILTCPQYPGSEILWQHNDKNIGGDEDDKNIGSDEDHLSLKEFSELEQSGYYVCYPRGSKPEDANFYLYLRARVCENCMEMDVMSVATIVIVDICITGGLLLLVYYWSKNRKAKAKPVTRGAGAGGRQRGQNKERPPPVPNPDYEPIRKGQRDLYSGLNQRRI

| Binder | CD25 Induction EC50 (pM) | CD69 Induction EC50 (pM) | T cell Proliferation in PBMC EC50 (pM) |
| --- | --- | --- | --- |
| B1 | 94 | 62 | 44 |
| B2 | 11 | 7 | 9 |
| B3 | 11 | 5 | 6 |
| B4 | 6 | 7 | 7 |
| B5 | 98 | 75 | 19 |
| B6 |  | 225 | 500 |
| B7 | 10 | 4 | 7 |
| B8 |  | 57 | 264 |
| B9 | 41 | 17 | 37 |
| B10 | 116 | 74 | 74 |
| B11 | 39 | 21 | 48 |

Target: T2, human CD3 on T cells
Assay: flow cytometry, human T-cells (as headed in Table 10)

| Binder | Kd [nM] |
| --- | --- |
| B1 | 79.3 |
| B2 | 2.4 |
| B3 | 2.6 |
| B4 | 1.3 |
| B5 | 144 |
| B6 | 2.1 |
| B7 | 4.1 |
| B8 | 2.3 |
| B9 | 97.2 |
| B10 | 69.5 |
| B11 | 86.3 |

Target: T1, human CD33 on cells
Assay: flow cytometry, titration on U-937 cells

| Binder | Kd [nM] |
| --- | --- |
| B1 | 1.7 |
| B2 | 2.2 |
| B3 | 0.6 |
| B4 | 0.9 |
| B5 | 7.2 |
| B6 | 80.2 |
| B7 | 8.6 |
| B8 | 39.5 |
| B9 | 5.1 |
| B10 | 6.2 |
| B11 | 1.6 |

Target: T1, human CD33 on cells
Assay: flow cytometry, titration on HL-60 cells

| Binder | Kd [nM] |
| --- | --- |
| B1 | 0.5 |
| B2 | 0.5 |
| B3 | 0.3 |
| B4 | 0.4 |
| B5 | 4.1 |
| B6 | 9.7 |
| B7 | 0.7 |
| B8 | 5.6 |
| B9 | 0.4 |
| B10 | 1 |
| B11 | 0.4 |

Target: cynomolgus CD33 on CHO cells (cynomolgus monkey)
Assay: flow cytometry; KD on CHO-cynomolgus CD33 cells divided by KD on CHO-human CD33 cells

| Binder | KD ratio cynoCD33/ huCD33 |
| --- | --- |
| B1 | 1.1 |
| B2 | 1 |
| B3 | 1.2 |
| B4 | 1.1 |
| B5 | 33.8 |
| B6 | 0.9 |
| B7 | 0.6 |
| B8 | 1.8 |
| B9 | 1.9 |
| B10 | 0.8 |
| B11 | 0.8 |

Target: T1, human CD33 on cells
Assay: flow cytometry, titration on KG-1 cells

| Binder | Kd [nM] |
| --- | --- |
| B1 | 0.5 |
| B2 | 0.3 |
| B3 | 0.5 |
| B4 | 0.3 |
| B5 | 7 |
| B6 | 25.1 |
| B7 | 2 |
| B8 | 12.4 |
| B9 | 1 |
| B10 | 1.2 |
| B11 | 0.5 |

Target: T1, human CD33 on cells
Assay: cell-based or functional assay

| Binder | EC50 on HL-60 [pM] (cytotoxicity) |
| --- | --- |
| B1 | 1.8 |
| B2 | 6.8 |
| B3 | 5.9 |
| B4 | 1.8 |
| B5 | 10 |
| B6 | 7.6 |
| B7 | 3.2 |
| B8 | 9.6 |
| B9 | 2.8 |
| B10 | 2.7 |
| B11 | 1.6 |

Target: T2, human CD3 on T cells
Assay: flow cytometry, titration on human CD3+ T cells (Jurkat per paragraph 124/paragraph 125)

| Binder | Kd [nM] |
| --- | --- |
| B1 | 79.3 |
| B2 | 2.4 |
| B3 | 2.6 |
| B4 | 1.3 |
| B5 | 144 |
| B6 | 2.1 |
| B7 | 4.1 |
| B8 | 2.3 |
| B9 | 97.2 |
| B10 | 69.5 |
| B11 | 86.3 |
